Results on 81 substances are retold here after the Human Domainome abundance scans (Beltran et al. 2025).

± gives the uncertainty stated by the source.

This series in a line: abundance fitness (aPCA) (normalised: wild type 0, dead -1); higher = more abundant; growth selection in yeast, the domain comes from the species named. The note with it: Homo sapiens.
“BAG family molecular chaperone regulator 3 T46G, O95817”: the abundance fitness was -0.65 ± 0.075.

For the substance “BAG family molecular chaperone regulator 3 T46H, O95817”, the abundance fitness was -0.571 ± 0.4.

Substance “BAG family molecular chaperone regulator 3 T46I, O95817” had an abundance fitness of -0.285 ± 0.21. With “BAG family molecular chaperone regulator 3 T46K, O95817”, the abundance fitness is -0.435 ± 0.33. Substance “BAG family molecular chaperone regulator 3 T46L, O95817” displayed an abundance fitness of -0.53 ± 0.12. Substance “BAG family molecular chaperone regulator 3 T46P, O95817” had an abundance fitness of -0.752 ± 0.32.

For “BAG family molecular chaperone regulator 3 T46Q, O95817”, the abundance fitness is -0.444 ± 0.14.

Substance “BAG family molecular chaperone regulator 3 T46R, O95817” registered an abundance fitness of -0.225 ± 0.11.

The substance “BAG family molecular chaperone regulator 3 T46S, O95817” yielded an abundance fitness of -0.183 ± 0.12. Turning to “BAG family molecular chaperone regulator 3 T46V, O95817”, the abundance fitness was -0.531 ± 0.14. To “BAG family molecular chaperone regulator 3 T46Y, O95817” belongs -0.358 ± 0.33. In turn, “BAG family molecular chaperone regulator 3 T47A, O95817” returned an abundance fitness of -0.613 ± 0.17. In turn, “BAG family molecular chaperone regulator 3 T47C, O95817” had an abundance fitness of -0.227 ± 0.27. For “BAG family molecular chaperone regulator 3 T47D, O95817” the value was -0.679 ± 0.42. For the substance “BAG family molecular chaperone regulator 3 T47E, O95817”, the abundance fitness is -0.573 ± 0.15. Turning to “BAG family molecular chaperone regulator 3 T47G, O95817”, the abundance fitness is -0.796 ± 0.14. In the case of “BAG family molecular chaperone regulator 3 T47H, O95817”, the abundance fitness was -0.736 ± 0.3. The substance “BAG family molecular chaperone regulator 3 T47I, O95817” had an abundance fitness of -0.468 ± 0.23.

“BAG family molecular chaperone regulator 3 T47L, O95817” showed an abundance fitness of -0.613 ± 0.28.

On to “BAG family molecular chaperone regulator 3 T47M, O95817”, for which the abundance fitness was -0.564 ± 0.24. On to “BAG family molecular chaperone regulator 3 T47N, O95817”, for which the abundance fitness was -0.53 ± 0.2.

Turning to “BAG family molecular chaperone regulator 3 T47Q, O95817”, the abundance fitness was -0.741 ± 0.14. To “BAG family molecular chaperone regulator 3 T47R, O95817” belongs -0.728 ± 0.13. To “BAG family molecular chaperone regulator 3 T47V, O95817” belongs -0.302 ± 0.073; to “BAG family molecular chaperone regulator 3 T48I, O95817”, -0.354 ± 0.14.

For “BAG family molecular chaperone regulator 3 V12A, O95817”, the abundance fitness was -0.03 ± 0.12. “BAG family molecular chaperone regulator 3 V12D, O95817” had an abundance fitness of 0.092 ± 0.16. “BAG family molecular chaperone regulator 3 V12E, O95817”: the abundance fitness was -0.594 ± 0.26. With “BAG family molecular chaperone regulator 3 V12F, O95817”, the abundance fitness stood at 0.051 ± 0.19. With “BAG family molecular chaperone regulator 3 V12G, O95817”, the abundance fitness was -0.443 ± 0.069. The substance “BAG family molecular chaperone regulator 3 V12H, O95817” returned an abundance fitness of -0.48 ± 0.33. “BAG family molecular chaperone regulator 3 V12I, O95817” registered an abundance fitness of 0.446 ± 0.11.

With “BAG family molecular chaperone regulator 3 V12L, O95817”, the abundance fitness was found to be 0.208 ± 0.066.

Consider “BAG family molecular chaperone regulator 3 V12M, O95817”, for which the abundance fitness is -0.393 ± 0.4. Regarding “BAG family molecular chaperone regulator 3 V12N, O95817”, the abundance fitness stood at 0.139 ± 0.15. Substance “BAG family molecular chaperone regulator 3 V12Q, O95817” returned an abundance fitness of 0.065 ± 0.16. “BAG family molecular chaperone regulator 3 V12R, O95817” displayed an abundance fitness of -0.594 ± 0.21. In turn, “BAG family molecular chaperone regulator 3 V12S, O95817” came in with an abundance fitness of -0.14 ± 0.15.

For the substance “BAG family molecular chaperone regulator 3 V12T, O95817”, the abundance fitness is -0.52 ± 0.43. To “BAG family molecular chaperone regulator 3 V12W, O95817” belongs -0.571 ± 0.32. “BAG family molecular chaperone regulator 3 V12Y, O95817”: the abundance fitness turned out to be 0.199 ± 0.12. Regarding “BAG family molecular chaperone regulator 3 V40A, O95817”, the abundance fitness is -0.556 ± 0.17.

Substance “BAG family molecular chaperone regulator 3 V40C, O95817” came in with an abundance fitness of -0.269 ± 0.13. “BAG family molecular chaperone regulator 3 V40D, O95817” returned an abundance fitness of -0.808 ± 0.42. With “BAG family molecular chaperone regulator 3 V40E, O95817”, the abundance fitness was -0.661 ± 0.18. The substance “BAG family molecular chaperone regulator 3 V40F, O95817” yielded an abundance fitness of -0.533 ± 0.4. “BAG family molecular chaperone regulator 3 V40G, O95817” showed an abundance fitness of -0.541 ± 0.087. Turning to “BAG family molecular chaperone regulator 3 V40H, O95817”, the abundance fitness was -0.082 ± 0.17. For “BAG family molecular chaperone regulator 3 V40I, O95817”, the abundance fitness is -0.084 ± 0.069. Substance “BAG family molecular chaperone regulator 3 V40K, O95817” yielded an abundance fitness of -0.64 ± 0.098. As to “BAG family molecular chaperone regulator 3 V40L, O95817”, the abundance fitness is -0.664 ± 0.084. The substance “BAG family molecular chaperone regulator 3 V40M, O95817” gave an abundance fitness of 0.03 ± 0.16. “BAG family molecular chaperone regulator 3 V40N, O95817” gave an abundance fitness of 0.081 ± 0.23. “BAG family molecular chaperone regulator 3 V40Q, O95817” registered an abundance fitness of -0.642 ± 0.13. Take “BAG family molecular chaperone regulator 3 V40R, O95817”: the abundance fitness is -0.637 ± 0.13. To “BAG family molecular chaperone regulator 3 V40S, O95817” belongs -0.745 ± 0.21; to “BAG family molecular chaperone regulator 3 V40T, O95817”, -0.959 ± 0.24. “BAG family molecular chaperone regulator 3 V40W, O95817” showed an abundance fitness of -0.468 ± 0.21. On to “BAG family molecular chaperone regulator 3 V54A, O95817”, for which the abundance fitness is -0.719 ± 0.26. “BAG family molecular chaperone regulator 3 V54C, O95817” came in with an abundance fitness of -0.022 ± 0.12.

As to “BAG family molecular chaperone regulator 3 V54D, O95817”, the abundance fitness was -0.08 ± 0.23. Substance “BAG family molecular chaperone regulator 3 V54E, O95817” registered an abundance fitness of -0.591 ± 0.28. Consider “BAG family molecular chaperone regulator 3 V54F, O95817”, for which the abundance fitness is -0.375 ± 0.31.

In turn, “BAG family molecular chaperone regulator 3 V54G, O95817” registered an abundance fitness of -0.07 ± 0.077. To “BAG family molecular chaperone regulator 3 V54I, O95817” belongs -0.335 ± 0.13; to “BAG family molecular chaperone regulator 3 V54K, O95817”, -0.008 ± 0.14; to “BAG family molecular chaperone regulator 3 V54L, O95817”, 0.369 ± 0.097. Substance “BAG family molecular chaperone regulator 3 V54M, O95817” returned an abundance fitness of 0.19 ± 0.22. In the case of “BAG family molecular chaperone regulator 3 V54P, O95817”, the abundance fitness is -0.832 ± 0.42. “BAG family molecular chaperone regulator 3 V54Q, O95817” showed an abundance fitness of -0.084 ± 0.23. For “BAG family molecular chaperone regulator 3 V54R, O95817” the value was -0.083 ± 0.081; for “BAG family molecular chaperone regulator 3 V54S, O95817”, -0.13 ± 0.13. In turn, “BAG family molecular chaperone regulator 3 V54W, O95817” displayed an abundance fitness of -0.961 ± 0.37. The substance “BAG family molecular chaperone regulator 3 V54Y, O95817” had an abundance fitness of -0.376 ± 0.25. “BAG family molecular chaperone regulator 3 W26A, O95817” had an abundance fitness of -0.534 ± 0.092.

Substance “BAG family molecular chaperone regulator 3 W26D, O95817” showed an abundance fitness of -0.621 ± 0.37. “BAG family molecular chaperone regulator 3 W26E, O95817”: the abundance fitness is -0.885 ± 0.25.

The substance “BAG family molecular chaperone regulator 3 W26F, O95817” displayed an abundance fitness of 0.4 ± 0.21. In the case of “BAG family molecular chaperone regulator 3 W26G, O95817”, the abundance fitness is -0.653 ± 0.17. On to “BAG family molecular chaperone regulator 3 W26H, O95817”, for which the abundance fitness was -0.362 ± 0.069. In the case of “BAG family molecular chaperone regulator 3 W26I, O95817”, the abundance fitness is -0.608 ± 0.34.
